What was measured:
GLP (human) = GLP (human) (UniProt Q9H9B1)
G9a (human) = G9a (human) (UniProt Q96KQ7)
SETD7 (human) = molecular target: T1, SETD7 (human) (UniProt Q8WTS6)
T1 sequence: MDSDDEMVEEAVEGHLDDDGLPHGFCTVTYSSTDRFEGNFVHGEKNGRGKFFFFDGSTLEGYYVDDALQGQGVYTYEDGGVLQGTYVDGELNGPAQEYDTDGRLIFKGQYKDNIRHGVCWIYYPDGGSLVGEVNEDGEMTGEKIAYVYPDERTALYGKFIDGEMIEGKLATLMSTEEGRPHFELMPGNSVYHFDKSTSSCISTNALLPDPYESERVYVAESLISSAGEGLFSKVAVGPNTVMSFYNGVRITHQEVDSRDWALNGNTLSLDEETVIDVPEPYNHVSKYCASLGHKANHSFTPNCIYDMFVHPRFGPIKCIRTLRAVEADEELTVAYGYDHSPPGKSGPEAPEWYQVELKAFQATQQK

Chain of GLP (human) (Q9H9B1 whole entry): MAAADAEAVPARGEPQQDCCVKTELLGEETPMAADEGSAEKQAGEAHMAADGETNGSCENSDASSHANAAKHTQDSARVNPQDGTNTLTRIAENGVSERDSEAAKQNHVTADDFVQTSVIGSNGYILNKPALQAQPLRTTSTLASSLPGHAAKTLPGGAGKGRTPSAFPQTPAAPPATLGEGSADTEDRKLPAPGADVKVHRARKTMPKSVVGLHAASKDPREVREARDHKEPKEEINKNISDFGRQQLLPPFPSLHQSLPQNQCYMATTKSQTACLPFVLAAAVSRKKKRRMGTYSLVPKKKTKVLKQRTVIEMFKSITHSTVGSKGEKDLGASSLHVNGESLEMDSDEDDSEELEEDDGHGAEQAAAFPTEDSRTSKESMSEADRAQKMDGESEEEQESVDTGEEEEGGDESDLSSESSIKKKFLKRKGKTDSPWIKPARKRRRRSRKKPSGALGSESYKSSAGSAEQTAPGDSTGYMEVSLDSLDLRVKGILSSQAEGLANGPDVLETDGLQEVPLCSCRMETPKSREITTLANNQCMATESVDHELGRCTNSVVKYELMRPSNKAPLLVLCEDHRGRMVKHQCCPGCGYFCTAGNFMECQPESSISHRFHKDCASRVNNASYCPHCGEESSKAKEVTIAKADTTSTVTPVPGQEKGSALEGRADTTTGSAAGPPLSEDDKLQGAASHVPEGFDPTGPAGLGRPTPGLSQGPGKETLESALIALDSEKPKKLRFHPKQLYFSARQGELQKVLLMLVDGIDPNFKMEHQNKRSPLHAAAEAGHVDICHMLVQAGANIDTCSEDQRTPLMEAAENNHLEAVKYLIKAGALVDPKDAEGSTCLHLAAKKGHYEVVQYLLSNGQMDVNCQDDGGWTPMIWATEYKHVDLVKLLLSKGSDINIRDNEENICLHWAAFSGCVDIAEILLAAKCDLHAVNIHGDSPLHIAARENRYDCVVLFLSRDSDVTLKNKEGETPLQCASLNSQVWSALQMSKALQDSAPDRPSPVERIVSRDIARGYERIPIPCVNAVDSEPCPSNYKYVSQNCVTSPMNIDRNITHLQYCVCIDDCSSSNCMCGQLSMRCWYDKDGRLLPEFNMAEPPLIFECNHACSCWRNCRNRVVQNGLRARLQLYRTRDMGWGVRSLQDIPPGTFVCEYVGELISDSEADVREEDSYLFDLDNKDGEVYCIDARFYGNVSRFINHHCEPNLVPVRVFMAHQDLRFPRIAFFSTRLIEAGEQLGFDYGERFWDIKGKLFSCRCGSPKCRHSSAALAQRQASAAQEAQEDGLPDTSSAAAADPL
Chain of G9a (human) (Q96KQ7 whole entry): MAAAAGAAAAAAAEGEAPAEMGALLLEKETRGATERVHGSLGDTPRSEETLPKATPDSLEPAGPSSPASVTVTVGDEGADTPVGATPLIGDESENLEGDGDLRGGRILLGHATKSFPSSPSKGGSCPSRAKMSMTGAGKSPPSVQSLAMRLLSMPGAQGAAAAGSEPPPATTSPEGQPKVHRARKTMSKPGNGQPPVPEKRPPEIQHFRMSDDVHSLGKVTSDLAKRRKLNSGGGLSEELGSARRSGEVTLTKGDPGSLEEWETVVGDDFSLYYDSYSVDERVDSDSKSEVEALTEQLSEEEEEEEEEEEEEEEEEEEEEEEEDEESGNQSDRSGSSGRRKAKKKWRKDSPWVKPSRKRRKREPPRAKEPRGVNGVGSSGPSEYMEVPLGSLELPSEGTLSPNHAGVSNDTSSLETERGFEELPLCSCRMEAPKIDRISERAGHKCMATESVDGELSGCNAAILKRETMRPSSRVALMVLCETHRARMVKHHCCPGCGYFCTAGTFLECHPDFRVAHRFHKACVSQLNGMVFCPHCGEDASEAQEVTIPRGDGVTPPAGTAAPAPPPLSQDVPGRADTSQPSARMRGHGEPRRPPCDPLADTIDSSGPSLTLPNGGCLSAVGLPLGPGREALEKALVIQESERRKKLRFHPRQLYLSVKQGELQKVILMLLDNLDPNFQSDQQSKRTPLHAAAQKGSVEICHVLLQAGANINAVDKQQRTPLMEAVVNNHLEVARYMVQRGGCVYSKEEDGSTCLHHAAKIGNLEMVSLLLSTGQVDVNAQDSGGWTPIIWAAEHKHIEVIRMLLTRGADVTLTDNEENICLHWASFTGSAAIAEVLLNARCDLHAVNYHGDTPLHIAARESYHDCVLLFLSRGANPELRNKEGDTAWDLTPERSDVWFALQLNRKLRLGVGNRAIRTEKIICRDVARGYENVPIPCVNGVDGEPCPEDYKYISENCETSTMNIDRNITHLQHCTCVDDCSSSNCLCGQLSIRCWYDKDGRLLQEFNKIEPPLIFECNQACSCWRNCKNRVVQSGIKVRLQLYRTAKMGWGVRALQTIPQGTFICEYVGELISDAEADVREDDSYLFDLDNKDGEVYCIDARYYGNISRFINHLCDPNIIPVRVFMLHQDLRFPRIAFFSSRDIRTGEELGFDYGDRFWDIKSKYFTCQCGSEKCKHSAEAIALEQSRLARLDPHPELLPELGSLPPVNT

Substance	IC50 of inhibition of GLP (100 nM) methylation of a 21-mer H3 peptide (residues 1–21, 5 µM) with SAM (20 µM), MALDI-TOF MS (GLP (human)) [µM]	IC50 of inhibition of G9a (100 nM) methylation of a 21-mer H3 peptide (residues 1–21, 5 µM) with SAM (20 µM), MALDI-TOF MS (G9a (human)) [µM]	IC50 of inhibition of SETD7 (100 nM) methylation of a 21-mer H3 peptide (residues 1–21, 5 µM) with SAM (20 µM), MALDI-TOF MS (SETD7 (human)) [µM]	percent inhibition of SETD7 (100 nM) methyltransferase activity at 100 µM peptide, MALDI-TOF MS (SETD7 (human)) [%]
H3AP9 histone peptide	> 100	> 100		
H3F3a9 histone peptide	26			
H3K4 analog histone peptide with pyridylalanine (AP) at position 4			> 100	
H3K4 analog histone peptide with benzylamine (Kba) at position 4			> 100	
H3K4 analog histone peptide with meta-aminophenylalanine (F3a) at position 4			> 100	
H3F4a9 histone peptide	> 100	> 100		
H3Kba9 histone peptide	> 100	> 100		
H3F4a4 histone peptide			> 100	11

— PMC7048932, “Examining sterically demanding lysine analogs for histone lysine methyltransferase catalysis” (Scientific Reports, 2020)
